Assay [1] addresses F43 scFv-Fc-CD28-gp41 expressed on 293T cells (human; HIV-1) [IgG part: P01857]. Put plainly: cell-based or functional assay.
For assay [2], the target named is D80 scFv-Fc-CD28-gp41 expressed on 293T cells (human; HIV-1) [IgG part: P01857]. Put plainly: cell-based or functional assay.
Assay [3] deals with F70 scFv-Fc-CD28-gp41 expressed on 293T cells (human; HIV-1) [IgG part: P01857]. Put plainly: cell-based or functional assay.
Assay [4] concerns the target D80 scFv-Fc-CD28-gp41 expressed on 293T cells (human; HIV-1) [IgG part: P01857]. Put plainly: flow cytometry, 293T-D80 cells stained with APC-conjugated MuG6. (In general: A flow cytometer gives signals particle by particle.)
Assay [5] has as its target 11A scFv-Fc-CD28-gp41 expressed on 293T cells (human; HIV-1) [IgG part: P01857]. Put plainly: flow cytometry, 293T-11A cells stained with APC-conjugated MuG6.
The target of assay [6] is F43 scFv-Fc-CD28-gp41 expressed on 293T cells (human; HIV-1) [IgG part: P01857]. Put plainly: flow cytometry, 293T-F43 cells stained with APC-conjugated MuG6.
Assay [7] deals with F70 scFv-Fc-CD28-gp41 expressed on 293T cells (human; HIV-1) [IgG part: P01857]. Description: flow cytometry, 293T-F70 cells stained with APC-conjugated MuG6.
The target in assay [8] is F43 scFv-Fc (human) [IgG part: P01857]. Put plainly: Octet-Red biolayer interferometry, SA sensor tips, 2:1 model; reference pair HuG6.3 and D80 scFv-Fc. (Biolayer interferometry detects binding as a change in optical thickness at a sensor tip.)

B1: MuG6 antibody (format in the CDC and ADCC assays not stated) (antibody, V domains shown)
VH: QVQLQQSGTVLARPGASVKMSCKASGYTFTSYWMHWVKQRPGQGLEWIGAVSPGNSDTSYNQKFKGKATLTAVTSTSTAYMEFSSLTNEDSAVYYCTRSRYGNNALDYWGQGTTVTVSS
VL: DIELTQSPSSMSVSLGDTVNITCRASQGISSNIVWLQQKPGKSFKGLIYHGTNLEDGVPSRFSGSGSGADYSLTISSLESEDFADYYCVQYSQFPPTFGSGTKLELK
modifications: APC-conjugated in the flow cytometry of FIG.11C
B1: the CDC, percent of target cells killed (LDH release, rabbit serum) (% of target cells killed) in assay [1], in assay [2] and in assay [3] was 20 each time. In addition, the % of cells in Q2 (ZsGreen+, G6-id+) in assay [4] came out at 43.3%; in assay [6], 41.3%; in assay [7] it was 44%. The % of cells in Q3 (ZsGreen-, G6-id+) is 5.28% in assay [4], 0.097% in assay [5], 9.11% in assay [6] and 6.15% in assay [7].

B2: HuG6.3 (format not stated, Octet-Red assay) (antibody, V domains shown)
VH: QVQLVQSGAEVVKPGASVKVSCKASGYTFTSYWMHWVKQAPGQGLEWIGAVSPGNSDTSYNEKFKGKATLTVDKSASTAYMELSSLRSEDTAVYYCTRSRYGNNALDYWGQGTLVTVS
VL: DIQLTQSPSSLSASVGDRVTITCRASQGISSNIVWLQQKPGKAPKGLIYHGTNLESGVPSRFSGSGSGTDYTLTISSLEPEDFATYYCVQYSQFPPTFGQGTKLEIK
With B2, in assay [8], the fold increase in binding affinity compared to D80 scFv-Fc worked out at 50 fold, the fold slower Koff compared to D80 scFv-Fc amounted to 600 fold and the fold slower Kon compared to D80 scFv-Fc was determined as 3.5 fold.

Source of the values: patent publication US20190276523A1.
